Molecular target: histone H2A-N38C (Xenopus laevis)
Assay: cross-linking

stoichiometry N: 2
Substance: histone H2A-N38C (natural protein)

Reference: article PMC5757783
